In a protein production outcome set (Wang et al. 2014):

Assay: label from the status in PepcDB records

Row | Sequence | protein production
1 | MALAFDEFGRPFIILREQDQKTRLKGIDAQKANISAGKAVARILRSSLGPKGMEKKCFKDLTEMSPYVSFFLLNLISLRSIPMALALNSGLQPIETLSAVKSQQIKRRTFHSTGLIATM | failed
2 | MALCGRPARQRSSAGQRYLAVAPARCDHWSPPSVRRVPVGRVGFYPAPVINRDAGGRASMTSQRGFWDRMAERYAARPIKDVAAYEAMLADAAGRLSPSDRVLEIGCGTGGTAIRLAPGVAQWTATDLSPEMVRIASAKPAPPNLSFVVADADLSTGEPPYDAVCAFLILHLVDDIRTTLSAIRDWLKPGGLLLSKTYCIGDMNPALRWGVIPVLQRIGWVPPIKSLMSQQLRAAIAEAGFEIEASRTFGSNSHAHYIVARKPA | failed
3 | MALDNAKTSQKLQSLAELDGKAPSHRNLNVQTWSTAEGAKVLFVEARELPMFDLRLIFAAGSSQDGNAPGVALLTNAMLNEGVAGKDVGAIAQGFEGLGADFGNGAYKDMAVASLRSLSAVDKREPALKLFAEVVGKPTFPADSLARIKNQMLAGFEYQKQNPGKLASLELMKRLYGTHPYAHASDGDAKSIPPITLAQLKAFHAKAYAAGNVVIALVGDLSRSDAEAIAAQVSAALPKGPALAKIEQPAEPKASIGHIEFPSSQTSLMLAQLGIDRDDPDYAAVSLGNQILGGGGFGTRLMSEVREKRGLTYGVYSGFTPMQARGPFMINLQTRAEMSEGTLKLVQDVFAEYLKNGPTQKELDDAKRELAGSFPLSTASNADIVGQLGAMGFYNLPLSYLEDFMRQSQELTVEQVKAAMNKHLNVDKMVIVSAGPTVAQKPLEHHHHHH | failed
4 | MALDRIEAMRAFCRIVELGSFTRAADSLGVASTTLSGQIQVLERLLDIRLLHRSTRKVHPTNEGLAYYQRARKVIEDIDDLEASVSISRAVVKGRVAVEMPTPVGIHLVIPALHGFTERYPHIHLDIGCSERVVGLMQEGIDCAIRGGDIADQDLIARRVGQMRFCLCAAPAYLDAHPAITHPAQLARHRHLGFRFPGTGKRFVATLRKQRDSHPLDHPPHVYFNNGTAVTAGAAAGLGIAALPRAEVRHLLEAGALREILPDWTLTSMPMSVVYPQTHQLSARVQVFVQWVAELFEGDGLWKDA | failed
5 | MALGHRCRRFGTDKITSRPLRRQPQENPMNIKQLITAALIASAAFATQAAPQKPVSAAQTAQHSAVWIDVRSEQEFSEGHLHNAVNIPVDQIVRRIYEAAPDKDTPVNLYCRSGRRAEAALQELKKAGYTNVANHGGYEDLLKKGMK | failed
6 | MALIVQKFGGTSVGTVERIEQVAEKVKKFREAGDDVVVVVSAMSGETNRLIGLANQIMEQPVPRELDVMVSTGEQVTIALLSMALIKRGVPAVSYTGNQVRILTDSAHTKARILHIDDTHIRADLKAGRVVVVAGFQGVDGNGNITTLGRGGSDTTGVALAAALKADECQIYTDVDGVYTTDPRVVPQARRLDKITFEEMLEMASLGSKVLQIRAVEFAGKYNVPLRVLHSFQEGPGTLITIDDEEESMEQPIISGIAFNRDEAKLTIRGVPDTPGVAFKILGPISAANVEVDMIVQNVAHDNTTDFTFTVHRNDYLNALEILKQTAANIGAREAIGDTNIAKVSIVGVGMRSHAGVASRMFEALAKESINIQMISTSEIKVSVVIEEKYLELAVRALHTAFELDAPARQG | failed
7 | MALKDYALEKEKVKKFLQEFYQDDELGKKQFKYGNQLVRLAHREQVALYVDLDDVAEDDPELVDSICENARRYAKLFADAVQELLPQYKEREVVNKDVLDVYIEHRLMMEQRSRDPGMVRSPQNQYPAELMRRFELYFQGPSSNKPRVIREVRADSVGKLVTVRGIVTRVSEVKPKMVVATYTCDQCGAETYQPIQSPTFMPLIMCPSQECQTNRSGGRLYLQTRGSRFIKFQEMKMQEHSDQVPVGNIPRSITVLVEGENTRIAQPGDHVSVTGIFLPILRTGFRQVVQGLLSETYLEAHRIVKMNKSEDDESGAGELTREELRQIAEEDFYEKLAASIAPEIYG | failed
8 | MALKLGVIGTGAIGQDHIRRCSKTLVGSQVVAVTDINLEQAANVVRDLGIGAEVYADGHALIAAPDVEAVLVCSWGPSHEEYVLAAIAAGKPVFCEKPLAVTAEGCRHIVEAEIASGRRLVQVGFMRPYDQGYRALKSVIDSGQIGEPLMLHCAHRNPRVGENYKTDMAITDTLIHELNVLRWLLNDDYVSVQVVFPRKSGKALAHMKDPQIVMLETARGTRIDVEVFVNCQYGYDIQCEVVGESGIARLPEPSQVQLRREAKLSNAILMDWKDRFIAAYDVELQDFIDGVKAGTIYGPSAWDGYAAAVAADACVLAQNNGAVVPITLAMRPAFYA | failed
9 | MALKYPSGKEYRGNKPNAARRPAADYANRGMTLEDDLNATNEYYRERGIAVIHKKPTPVQIVRVDYPKRSAAVITEAYFRQASTTDYNGVYRGKYIDFEAKETKNKTAFPLKNFHAHQIRHMEQVVAHGGICFAILRFSLLNETYLLDASHLIAWWNKQEAGGRKSIPKQEIERHGHSIPLGYQPRIDYISVVDNVYFTR | not failed
10 | MALNNFLTFQLLLLLLRVSSESPWIVAGDVSRIPINFLELAKSPEVFDSMVRIRRKIHENPELGYEEFETSKFIRSELDLIGVKYRFPVAITGIIGYIGTGEPPFVALRADMDALPIQEAVEWEHKSKNPGKMHACGHDGHVAMLLGAAKILQQHRQHLQGTVVLIFQPAEEGLSGAKMMREEGALKNVEAIFGIHLSPRTPFGKAASLAGSFMAGAGAFEAVITGKGGHAAIPQHTIDPVVAASSIVLSLQHLVSRETDPSDSKVVTVTKVNGGNAFNVIPDSITIGGTLRAFTGFTQLQERIKEIITKQAAVHRCNASVNLAPNGNQPMPPTVNNMDLYKKFKKVVRDLLGQEAFVEAVPEMGSEDFSYFAETIPGHFSLLGMQDETQGYASSHSPHYRINEDVLPYGAAIHATMAVQYLKDKASKGSVSGFHDEL | not failed
11 | MALNVAPVRDTKWLTLEVCRQFQRGTCSRSDEECKFAHPPKSCQVENGRVIACFDSLKGRCSRENCKYLHPPTHLKTQLEINGRNNLIQQKTAAAMLAQQMQFMFPGTPLHPVPTFPVGPAIGTNTAISFAPYLAPVTPGVGLVPTEILPTTPVIVPGSPPVTVPGSTATQKLLRTDKLEVCREFQRGNCARGETDCRFAHPADSTMIDTSDNTVTVCMDYIKGRCMREKCKYFHPPAHLQAKIKAAQHQANQAAVAAQAAAAAATVMAFPPGALHPLPKRQALEKSNGTSAVFNPSVLHYQQALTSAQLQQHAAFIPTVPMMHSATSATVSAATTPATSVPFAATATANQIILK | not failed
12 | MALPASTPPRAKKRFAWIRTLRWYWWLLLFILLGYGLSHIMHWDDRGLLWLKERFESNEERSASIWLPDYHVEIDAKALPGMEKDEASDLSYNPISKTLFAVMGKNAFLVELTLKGDVLRKIPLVGWSNPEGVAVMNDGLIAITDERQHQLTIVKVTADTTTLNIADFPHYELGTSANKNKGFEGVAWDPRRQQLLLGEERPPALYTWKSDGSNVLKGDKQSLLSRALDMRNLSSLSIDPRTGHMLALSADSHMLLEVDEQGNQVSFMTLLGGMNGLKDTIPRAEGVALDEAGTLYMVSEPNLFYSFRKQ | failed
13 | MALPESESARTEQALGRLVGSLCVVTAQQGELSSAMLASWVSQATFSPPGLTVAVAKERAIESLLHKNSCFVLNILQEGNHLGLMKHFLKPFAPGGDRFADVATETAENGAPILTESLAYLECRVQQRLECGDHWVLYAVTDRGALLKDGVTAVHHRKSGDHYLEHHHHHH | failed
14 | MALPRPTSPHARGSNRTPAIMRLVLGACVPGLLTLTWLYGPGTLLNLAWASLVALACEAAMLALRKRPPGVFLKDGSALVTALLLAVALPPYAPWWLTLVATFFALVFGKHLYGGLGQNPFNPAMLGYVVALVSFPLEMTRWPSPDSALGLPDSLREFLGLATRPDAWAHATALDVLKTDRSLTVDELFAGNPAFGHLGSAGSEWVNLAFLLGGLFLLWRRLFTWHAPLGMLAGLFAMSLLFWNGSGSDSHGSPLFHLFSGATMLGAFFIVTDPVSGATSNRGRLVFGLGVGVLTYVIRAWGGYPDGVAFAVLLMNLAAPTIDYYTRPRTYGHRKAERGFKAGD | failed
15 | MALREMIIDESDDIESYSDQSLCLDKAKELLALIKLPTGLLPLKDMTEVGYNKTKGFVWMRMRSKIEHTFREIGRRVLYDTEITAFVEDRRMRRLTGVKSKELMIWVPVNDIFIKRKILRRSPLLIPPACHEHLKFQHFNVRVDKLKEKRSNQTSLM | failed
